Consider 14 molecules from paper PMC10757926 (2023).

Changes are numbered by the printed parent chain. Names and notes keep the numbering of the source.

First the molecules themselves.
B1: hSIRPα-S36K>R Nb (VHH)
VHH: EVQLVESGGGLVQPGGSLRLSCAASGFTLDYYAIGWFRQVPGREREGVSCISSDGGGNTYYADSVRGRFTISRDNARNTVYLQMNSLRPEDSAVYSCAAGPTYYSGSYCRDPHSDYDYWGQGTQVTVSS
B2: hSIRPα Nb S29 (VHH)
VHH: EVQLVESGGGLVQPGGSLRLSCAASGFTSETYAIGWFRQAPGKEREGVSCISNDGGSRNYADSVKGRFTISRDNAKNTSYLQMNSLKPEDTAVYYCAAGKYYYCLGYVSDGMDYWGKGTPVTVSS
B3: hSIRPα Nb S12 (VHH)
VHH: QVQLVESGGGLVQPGGSLRLSCLVSGFSSSYYAIGWFRQAPGKEREGVSCITRSGDTTNYADSVKGRFTISRDDARNTVYLQMNSLKTEDTAVYSCALWAWAGSGRLRCTASEYGHWGQGTQVTVSS
B4: hSIRPα Nb S8 (VHH)
VHH: QVQLVESGGGLVQPGGSLRLSCADSEFRLDEYATGWFRQAPGKEREGVACISRSGSNTKYTDSVKGRFTISRDNAKKTVYLQMNSLKPEDTAVYYCAADLTSHYLSCSSYTDYNSWGQGTQVTVSS
B5: hSIRPα Nb S33 (VHH)
VHH: EVQLVESGGGLVQPGGSLRLSCTTSGFTLDYYSVGWFRQAPGKEREGVSCITASGSSTNYANSVKGRFTISRDKVKNTVYLQMSSLKPEDTAVYYCAAEPCTVVAGILQAPTSDFGSWGQGTQVTVSS
B6: hSIRPα Nb S7 (VHH)
VHH: HVQLVESGGGLVQVGDSLRLSCAPSGRTFRAYAMAWFRQAPGKEREFVAAIRWIGGTPSYKDSVKGRFTISRDNARNTFYLQMNSLEPQDTGVYYCAAEETQKGSGLGHDGRHYDYWGQGTPVTVSS
B7: hSIRPα Nb S41 (VHH)
VHH: HVQLVESGGGLVQPGGSLRLSCAASGETLDYYAIGYVRQAPGKEREGVSCISSRGDNTNYADSVKGRFTISRDNANNTVYLQMNSLKPEDTAVYYCVAIKDSWQNYYCSVGWVEYDVWGQGTQVTVSS
B8: hSIRPα Nb S43 (VHH)
VHH: HVQLVESGGGLVQPGGSARLSCAASGFDLDYFAIGWFRQAPGKEREGVSCISTRSETTNYVDSVKGRFTISRDNAISTVYLQMNNLKPEDTAVYYCAADWADWTMTGCQMTWDDYNYWGQGAQVTVSS
B9: hSIRPα Nb S17 (VHH)
VHH: QVQLVESGGGLVQPGGSLRLSCAASGFTLDSYVIGWFRQAPGKEREGVSCISQRIGSTDYADSVKGRFTISKDNAKNTAYLQMNALKPEDTAVYYCAAGRLYYSGTYCPQGGMSYWGKGSPVTVSS
B10: hSIRPα Nb S21 (VHH)
VHH: DVQLVESGGGLVQPGGSLTLSCAASGFTSGTYALAYFRQAPGKEREGVSCISNDGGSRNYADSVKGRFTISRDNAKNTMYLQMNSLKPEDTAVYYCAAGPWYYCSDFARRPDGMDYWGKGTPVTVSS
B11: hSIRPα Nb S14 (VHH)
VHH: EVQLVESGGGLVQPGGSLRLSCAASGFTANSYRMTWVRQAPGKGLEWVADIGTGNEWKYYPDSVKGRFTISRDAAKNTVYLQMNSLKPEDTAVYYCAKNGAVWYGEDGLDYWGKGTLVTVSS
B12: hSIRPα Nb S45 (VHH)
VHH: HVQLVESGGGLVQPGGSLRLSCAARGFSFRDSAMSWARQAPGKGLEWVGAIYSDGSTVYEKSVKGRFTISRDNAKNTMYLQMHSLKPEDSARYYCAPKGVVADEGDYSGQGTLVTVSS
B13: hSIRPα-S36 Nb (VHH)
VHH: B1 VHH with R43K, R66K, R77K, R88K
B14: hSIRPα Nb S44 (VHH)
VHH: QVQLQESGGGLVQPGGSLRLACAASGFTFSSYDMSWVRQAPGKGLEWVSDIKSGGGRTYYADSVKGRFTISRDNAKNTVYLQMNSLKPEDTAVYYCGSLDNSGAYTGGGQGSQVTVSS

By Kd is commonly meant the equilibrium constant for the complex coming apart. For orientation: koff means the rate constant with which the complex falls apart.

In one assay the target is T1, biotinylated recombinant hSIRPα (extracellular portion) (human, UniProt P78324 31-373, biotin (Sulfo-NHS-LC-LC-Biotin)). The assay can be described thus: BLI.
T1 sequence (P78324 31-373): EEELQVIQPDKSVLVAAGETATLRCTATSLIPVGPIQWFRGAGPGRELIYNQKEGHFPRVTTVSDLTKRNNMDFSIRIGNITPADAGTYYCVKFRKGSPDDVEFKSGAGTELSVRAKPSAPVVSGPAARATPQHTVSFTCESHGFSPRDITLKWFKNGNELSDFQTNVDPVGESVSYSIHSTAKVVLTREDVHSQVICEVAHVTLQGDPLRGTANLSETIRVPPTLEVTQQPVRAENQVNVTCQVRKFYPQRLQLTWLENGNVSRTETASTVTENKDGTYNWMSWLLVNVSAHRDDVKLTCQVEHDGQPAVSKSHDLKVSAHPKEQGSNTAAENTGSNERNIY
Consider B1, for which the dissociation constant (Kd) stood at 0.19 nM.

The target of the next assay is T1, biotinylated recombinant hSIRPα …. The assay is described as follows: BLI. This is another data set of the same source. For orientation: In BLI a coated tip is dipped into the sample, and binding shifts an interference pattern.
B2: the dissociation constant Kd was determined as 4.78 nM.

Consider B3, for which the Kd stood at 25.9 nM.

For the molecule B4, the Kd came to 0.46 nM.

As for B5, the Kd stood at 20 nM.

For the molecule B6, the equilibrium dissociation constant (Kd) turned out to be 20 nM.

B7: the dissociation constant (Kd) stood at 5.65 nM.

Turning to B8, the Kd came out at 99 nM.

B9: the dissociation constant Kd is 26.6 nM.

On to B10, for which the equilibrium dissociation constant (Kd) came to 2.56 nM.

In the case of B11, the equilibrium dissociation constant (Kd) worked out at 16.7 nM.

As for B12, the Kd was found to be 2.53 nM.

Consider B13, for which the dissociation constant Kd worked out at 0.12 nM.

As for B14, the Kd was 4.61 nM.

Another assay has the same target. The assay is described as follows: BLI. The source holds these as a separate data set.
Turning to B2, the off-rate (koff) came out at 0.00462 s⁻¹.

Regarding B3, the off-rate constant (koff) is 0.0127 s⁻¹.

As to B4, the koff was determined as 0.0009 s⁻¹.

B5: the koff was determined as 0.00544 s⁻¹.

On to B6, for which the off-rate (koff) was 0.0123 s⁻¹.

With B7, the koff was found to be 0.00383 s⁻¹.

Turning to B8, the dissociation rate constant (koff) was determined as 0.131 s⁻¹.

B9: the koff came out at 0.00458 s⁻¹.

As to B11, the koff amounted to 0.00376 s⁻¹.

Take B12: the koff was determined as 0.00164 s⁻¹.

For the molecule B13, the koff amounted to 0.0002 s⁻¹.

In the case of B14, the off-rate (koff) is 0.00915 s⁻¹.
